Experimental data published in the DeepSol protein solubility set.

assay: soluble on expression in E. coli; label from the status in PepcDB or PDB records

Row | Sequence | soluble on expression in E. coli
1 | MAHHHHHHMTAALNRKFDLLQKSGTCPSYLLDVLTLLVAHANETELFKQELRSAPFENAAPPLRADRGMVAAAAPQPEMGTQTVTQPEAPGTEKEVLLAAERTLRAYASDLRKINDIAMATSSKKLREMKMSNFTEMAAFRDRVVSDAVDRAREELELLRMGWLESMNTEVERAKMEVHKVGLSSQKALHKMLEGYRDYVSDGFRLLKTEPLEVMHRAMAECAFCVERLKIMEQQVVPRIEIDALCGRLKSVERVIAQMLKKRHSSGVVDDEISVVPTAGPSETGASTAAAGDDRPLGLRLRDGGNDVEGLIVTEVAPNSLASKARISPGQIISHVGDALVTRRDDFTTAMQKTGSAAKLTIYDPETAVVRILTLKP | soluble
2 | MAHHHHHHMTEKENGNKDKRRKEKHRKHHRDRRESCNGVVNSSAAKTRPETAVAIEGADEEVENWDENRTRVDQLCQTYPNNMCNDCNNAGTRWASVNHGVFLCIRCSGIHRSLGVHVSKVKSANMDKWSAAEVHLMELIGNQRAKLLYEAHLPKDMKPMTFAESDATLQTFIQRKYQEKAFSVEAVDEKLRQYHKEARYGKKPKRNSSASRKKKANDGANDKAERSLKGEDTIKALYGSNAEVISKMSKRTGPIRGTFGVVNVGPEAYDERRKTLLEQFGFS | not soluble
3 | MAHHHHHHMTELVPEAEVTFNCGSPSFPYVRVYRCFKTTNSGMLYRLEDDKGRWAFYNDTPLTVFNVYVKFNADSVVTSDTDVALEMTQGEWDYWATTVVLPGHTQRFVEGTISSFLLNFASEGELAKDVTFVNGTPTVGYDRVYRCFKQNANGMLFRLVKVERPGNECVWNFYNDSRELSVEVELTLIEKDSAKPLGDTQVIPPPDGVGVALYKIVVPPLKTVPFLRGHPRFSKQSYVAKSMYDENMLDASEITFENGQPDRAVIDYPRTKVFRGFNNNGNGLAFLLVDPEEKKWAFYNDTTNYNVTATVRFAAGSVYKAAANTRVEVDPAVEGGTVCTITVMPLATELFITEGNPEQYQISLSAECSTGPKPEENPDYQNGQPDTKVMLRWEKVYRCFKNRGNGLLFRLVGDNDRRWGFYNDTTDFIFTVTVSFENGETVKTLGNTSVSEDPELGKVFTLEVAPLSTEVFVFGDLSGYKTRFAARSVRCA | not soluble
4 | MAHHHHHHMTILHNPGLPRVLNRITPQRLELTLMLIKERKKKLRYLGSYLQHYNDRTFLYNAMGGLNGTKFIIERHHHRAQYCHPTLHNERYSVRTIKMKGAQFDQVGNFTRNTWDCSVATTNLFQDATFRRHLSAIHKDEAIALLEGWGVKYVLLDEVRKPSVQDSIYVRHNLYIHKFPHIPDPVTNVYHGDADWKWKGDEKIDYTSYGASTKDERNTFQSLWSAAVRESKDSGVAKTVQAGKKL | not soluble
5 | MAHHHHHHMTLENKALLCLIKKYEEKNKFLNVVEYIHYVCTNLYSYEENLNYNIMYDEFLKDLKKYLKENILDYKHILENILLKTDINYVNEQNIVNDILSKKKIYDISFEEVKNTTMKSEYSMENIKTSVKTENKDISLNKEECNKDDHVQEDNIDKYNGLEGKNREKNICRNWKDEKSQHEFYQLQSFEKNENREWFRVDPNLNWKEKQQLIYNEIEKLKNEIKKITVHSESTKIIISSMICQSKIFLYELEDNIKDYKILKEKIMNDKYLLKKGDYINEVYNGIIQNQRIKIDNVKKTNKTLLNLYNKKFSNINYIISLNENINNVDFLYLNVLIHNRKETPQPYEQLQNKIPEYTNKEKEIFSNIEKNNDSLNLLDNLIVDITNKIDTNMDITNK | not soluble
6 | MAHHHHHHMTNVVECTFKTPPETAKAPDNAIIWNSFQYCDEKGWYSLTNHDEIMLRPTAFSDGRIKFLPQLEKIPEEFESVLCGKYDAKAWGKDDCNIVIEGDKDVHISLPGLQEKINYNHRERFPTFLKNWKIIVGMLNEHITVIRINTETAIIVSINEKSNVTVKCVNFNNGFLCVNPHTNLAIAYGDFALSELKKCELVPNITHEGAEWGFFVHLFKWGHIIIPKDIEIKLPSPGLKLIGKKIDTVAIISLPPNIYIHVKIDGPKCIRKLEYGQDYSITAIKSSESDIDIYLLFDGQLIKYEFSFDTRLNKVGKGRSINYAKLKCTNKSKEVTSFVFQATANSKLLLDSNCPTDNMGHLLCNQTISVFDAETGEYLSHPQGLQLTEVFNTLSYPPEKE | not soluble
7 | MAHHHHHHMTVGAAALCEYYGYLPRLVRHTGLLPSTRTSVTSSMAATVLQSSLYEADPSPPVRSGEFELPSTYSLHKPLVYDIAALPPKPVSSLRLVIISDTHERHREMSVPNGDVLVHCGDIQEGLNFVRDVKAMLIDFSAWFTDSALHPHPVKLIIAGNHDKAIAAMSTEDVRRLFAPAVYLCEDSVVVEPAGVRFYGSPRSISNSRWSPNTAFQGKKAWKRFVFASARQDDEAGAVSTASRCSSEQPLRSRLEGATPGGPVDVLVVHQSPDIPRAHHSVSEQPICAYAQQVAPRRVLLCGHLHGAHGMHRLPVPEHVRKSFRIATRGGGGQPEGVVRMDEIPHLPCINAAMMTGRFGQNVLLPPSVVDLEL | not soluble
8 | MAHHHHHHMVAPSGRTGRRTTRRRTLHTGAGTTVTQRSARLPSRLRRVSTLKTSRAPSCLSTSARLRLFRRRRTCWRCWSERASPYQSSATTPSSPPETAVCAWCRTALRTSSSRAPPWRYLACPSSPTAACAMPARAMWSLSSTTRTTARFASRPPTAICRTATTAPTSRATARTRKPSRTSTLTPRHASCTAASTARAASASTSTRRTSTSARLAAAGARFPPFMNWRRRTTICPFLSYAPSGSCTWAMQTRTTTCASSRLRGQRR | soluble
9 | MAHHHHHHMVENEVYNRDMRIVRSRERLDGRPTLRSFFNKDGLLLKTYGWIVRNAVGLIVLIHGLNSHTRFSFLRHNVHVFNNRAILMDADNYYIYKNSWIEHFNKNGYSVFGIDLQSHGESEGWENLSLNVKEFDDLVYDVLEYIQKVQDDNARYMNYSSSSYSSSSSRSNSSSNSSSNSGSNSNSNSNSNSRGGESPRNDNSANRMIAPLPVYLIGQSMGGNVALRALQIVGKYRGLNRRLNIRGCVSLSGMIAVEALGLPSSYIYKSFFMPLSRFLSDFLPTLRLLCEMPYKRFQYIRDIGRFDTMRYRRGITCRFAYELLKAMDNLDHDMRFMPRDIPVLFIHSSKDKLCYPGGVVSFYNRLNIRNKELHMLNYMEHMLTMEPGNERVLSKIMNWLYNMSRPQRITA | not soluble
10 | MAHHHHHHMVKGDCIRAAHLLIKFDGSRNCVSHRTGKSTADLTYDAALAELKQWAKRIADGEITFEDAARQRSDCGSYNSGGDLGFFGPGVMMKPFEDAARSLNVGEVSGVVRTESGLHIIKRLA | soluble
11 | MAHHHHHHMVLIKAKNNEGKTVGEGKFSPFCFVLYGDIQYGMIRANHGWYEERKLLKEAITKTNKIKPSFVVAMGDLANKFPIDELQNEQYKDLKTDFEQLDKSIDLYVFCGNHDVGNEPTHETISNFEHFWGDSYYSYIYNNCGFIILNSAVFFNDTQVQDLKEKQFLWLDETLKKMVSKNVKHKFLFLHHALMYDHIEEDENIGLIYGDKFRNYSEKNKFHIKKETRMVIYDMLKKYKVSHVFCAHLHANREKNIDANIKQITISAVGMQAASDQSGLMIVQVAEEGVDYKYYPFEFVPSFVKV | not soluble
12 | MAHHHHHHMVMSQRIAYVTGGMGGIGTSICQRLHKDGFRVVAGCGPNSPRRVKWLEDQKALGFDFYASEGNVGDWDSTKQAFDKVKAEVGEIDVLVNNAGITRDVVFRKMTREDWQAVIDTNLTSLFNVTKQVIDGMVERGWGRIINISSVNGQKGQFGQTNYSTAKAGIHGFTMSLAQEVATKGVTVNTVSPGYIGTDMVKAIRPDVLEKIVATIPVRRLGSPDEIGSIVAWLASEESGFSTGADFSLNGGLHMG | soluble
13 | MAHHHHHHMVSANKSTMPLSQGCAAAAGIPLEYFETRDHINHLISLGMPRVTPHTVPPKERVATLPVPPQQDHTELMLTISSGGSPQKSYFSTTESHLLTCGTLTPKTARKRPEIDSFDMEGAFAALVKRLESRVDEEDNKDMAS | not soluble
14 | MAHHHHHHMWHTTVMVPTQHWGAVGYFPAIVTRPSQLNFSGSYDPVAWSGPPSYPGQFAAGNRRQLGQQEQYRQPYSNYHNRPQPHRQMHAQPPYMAHRMTVNAVTYGFGDPTLGVYRTSADGWKYRGAYGGGRRPSPPFQAMVTRPLVSSNGRRRRGTHARANMAGGWGDLDTYDLYAFEAGENLDVDNMSYEELLELTERLGMVERGVQPARLNELRVVITPTHVKQQLESDRMVAGRNGLVKGGANIDQEEKEANEKMCEEDPIKCCICLDGVLVGQTATRMPCCRNFLHASCAAPWFV | not soluble
15 | MAHHHHHHSLSQVILDLQLACENHAGLPDEAQFQRWLDGVIPQFQEEAEVTIRLVDEAESHDLNLTYRGKDKPTNVLSFPFEAPPGIEMPLLGDLIICRQVVEQEAQEQSKPLEAHWAHMVVHGSLHLLGYDHIDDDEAEEMESLETEIMLAMGYEDPYIAEKIAE | soluble
16 | MAHHHHHHSLTTVGLELINVSSSWDEGIVELFEKIKRENKANGQLTGDDGLFFTNLYVTPVLKNINLRLEEGMMLAVAGSTGSGKSSLLMMILGELVPSEGKIRHSGRISYSPQTSWIMPGTIRDNILFGLTYDEFRYTSIIRACQLEEDLDLLPEKDKTAIAEGGVTLSGGQRARICLARAVYKDADLYLLDAPFTHLDIATEKEIFDKCVCKLIASKTRVVVTSKLEHLKRADRILLLHNGDCYFYGTFSELQAQRPDFSSLLLGLGSYDNISAERRSSILTETLRRVSVDETAGFRGEG | soluble
17 | MAHHHHHHVGTGSNDDDDKSPDPTQDVREPPALKYGIVLDAGSSHTSMFVYKWPADKENDTGIVGQHSSCDVQGGGISSYANDPSKAGQSLVRCLEQALRDVPRDRHASTPLYLGATAGMRLLNLTSPEATARVLEAVTQTLTQYPFDFRGARILSGQDEGVFGWVTANYLLENFIKYGWVGRWIRPRKGTLGAMDLGGASTQITFETTSPSEDPGNEVHLRLYGQHYRVYTHSFLCYGRDQILLRLLASALQIHRFHPCWPKGYSTQVLLQEVYQSPCTMGQRPRAFNGSAIVSLSGTSNATLCRDLVSRLFNISSCPFSQCSFNGVFQPPVAGNFIAFSAFYYTVDFLTTVMGLPVGTLKQLEEATEITCNQTWTELQARVPGQKTRLADYCAVAMFIHQLLSRGYHFDERSFREVVFQKKAADTAVGWALGYMLNLTNLIPADLPGLRKGTHF | soluble
18 | MAHILLIPANSPFVVTGALSAKVSTVEEFAQKHRAFAIFNAGFFDPANQKSTSYVVVTGQMVADPKDNERLVNNPQLKPYLNLIFNRSEFRRYLCGQTTRYDITLHNESPPANCRLVDAIGAGPRLLPKLTSVPEGFVDNAKGRDALLSKQLNARTAVGITSEGSIILVMVAQKPSKPKNSGISLVQLADLMKKLGASAAMNLDGGSSSSLYYNGKAFYGKFDLQGNPIKRKVKSVLLVQENVRNLEHHHHHH | not soluble
